{"source": "the RNAGym collection of RNA variant scans (doi:10.7554/elife.80360)", "parents": {"B1": {"name": "CPEB3 Ribozyme (parent)", "chain": "GGGGGCCACAGCAGAAGCGUUCACGUCGCGGCCCCUGUCAGAUUCUGGUGAAUCUGCGAAUUCUGCUGU"}}, "data": [{"variants_of": "B1", "assay": "self-cleavage, relative activity (ratio to wild type); higher = more cleavage; co-transcriptional", "values": [{"variant": "C6G G68U", "self-cleavage": 0.509}, {"variant": "C6G G68C", "self-cleavage": 0.478}, {"variant": "C6G G68A", "self-cleavage": 0.602}, {"variant": "C6G C63G", "self-cleavage": 0.149}, {"variant": "C6G C63U", "self-cleavage": 0.262}, {"variant": "C6G C63A", "self-cleavage": 0.185}, {"variant": "C6A U49C", "self-cleavage": 0.716}, {"variant": "C6A U49G", "self-cleavage": 0.5}, {"variant": "C6G G47A", "self-cleavage": 0.377}, {"variant": "C6G G47C", "self-cleavage": 0.36}, {"variant": "C6U A23U", "self-cleavage": 0.999}, {"variant": "C6U A23C", "self-cleavage": 0.953}, {"variant": "C6U U62G", "self-cleavage": 0.783}, {"variant": "C6U U62A", "self-cleavage": 0.873}, {"variant": "C6U U21C", "self-cleavage": 0.827}, {"variant": "C6U U21G", "self-cleavage": 0.329}, {"variant": "C6G U67C", "self-cleavage": 0.344}, {"variant": "C6G U67G", "self-cleavage": 0.374}, {"variant": "C6A U55C", "self-cleavage": 0.142}, {"variant": "C6G G28U", "self-cleavage": 0.0241}, {"variant": "C6U A60G", "self-cleavage": 0.85}, {"variant": "C6U A60C", "self-cleavage": 0.318}, {"variant": "C6U A60U", "self-cleavage": 0.401}, {"variant": "C6G A15C", "self-cleavage": 0.122}, {"variant": "C7A C12G", "self-cleavage": 0.378}, {"variant": "C7A C12A", "self-cleavage": 0.147}, {"variant": "C7A", "self-cleavage": 0.643}, {"variant": "C6A G58U", "self-cleavage": 0.695}, {"variant": "C6A G58A", "self-cleavage": 0.443}, {"variant": "C7A A16U", "self-cleavage": 0.222}, {"variant": "C6U A13C", "self-cleavage": 0.85}, {"variant": "C6A U62C", "self-cleavage": 0.338}, {"variant": "C6G U43C", "self-cleavage": 0.39}, {"variant": "C6U C27A", "self-cleavage": 0.369}, {"variant": "C6U C27G", "self-cleavage": 0.199}, {"variant": "C6G G19A", "self-cleavage": 0.0949}, {"variant": "C6G G19U", "self-cleavage": 0.0686}, {"variant": "C6G G19C", "self-cleavage": 0.0471}, {"variant": "C6G G56A", "self-cleavage": 0.204}, {"variant": "C6G G56C", "self-cleavage": 0.199}, {"variant": "C6G G56U", "self-cleavage": 0.152}, {"variant": "C6U C18A", "self-cleavage": 0.119}, {"variant": "C6U U61G", "self-cleavage": 0.809}, {"variant": "C6U U61A", "self-cleavage": 0.736}, {"variant": "C6U U61C", "self-cleavage": 0.647}, {"variant": "C6G G17A", "self-cleavage": 0.0588}, {"variant": "C6G G17U", "self-cleavage": 0.0809}, {"variant": "C6G G17C", "self-cleavage": 0.0719}, {"variant": "C6U U53A", "self-cleavage": 0.977}, {"variant": "C6U U53G", "self-cleavage": 0.719}, {"variant": "C6U U53C", "self-cleavage": 0.914}, {"variant": "C6G U53C", "self-cleavage": 0.108}, {"variant": "C6G U53A", "self-cleavage": 0.234}, {"variant": "C6A U36C", "self-cleavage": 0.247}, {"variant": "C6U C63U", "self-cleavage": 1.01}, {"variant": "C6U C63G", "self-cleavage": 0.808}, {"variant": "C6G U21G", "self-cleavage": 0.0354}, {"variant": "C6G U21C", "self-cleavage": 0.312}, {"variant": "C6G C34G", "self-cleavage": 0.0582}, {"variant": "C6G C34U", "self-cleavage": 0.304}, {"variant": "C6G A51U", "self-cleavage": 0.353}, {"variant": "C6U G28C", "self-cleavage": 0.0878}, {"variant": "C6U G28A", "self-cleavage": 0.0973}, {"variant": "C6G G30C", "self-cleavage": 0.133}, {"variant": "C6G G30A", "self-cleavage": 0.172}, {"variant": "C6U A51C", "self-cleavage": 0.905}, {"variant": "C6U U44C", "self-cleavage": 0.933}, {"variant": "C6U U44A", "self-cleavage": 0.887}, {"variant": "C6U U69A", "self-cleavage": 1.05}, {"variant": "C6U U69G", "self-cleavage": 1.04}, {"variant": "C7A A40U", "self-cleavage": 0.147}, {"variant": "C7A A40C", "self-cleavage": 0.15}, {"variant": "C6U A8U", "self-cleavage": 1.01}, {"variant": "C6U A8G", "self-cleavage": 0.813}, {"variant": "C6U A8C", "self-cleavage": 0.941}, {"variant": "C6U C57U", "self-cleavage": 0.363}, {"variant": "C6U C57A", "self-cleavage": 0.362}, {"variant": "C6U C57G", "self-cleavage": 0.266}, {"variant": "C6G U61C", "self-cleavage": 0.0649}, {"variant": "C6U G37U", "self-cleavage": 0.169}, {"variant": "C6U G37C", "self-cleavage": 0.154}, {"variant": "C6U G37A", "self-cleavage": 0.22}, {"variant": "C6G C32A", "self-cleavage": 0.0685}, {"variant": "C6G C32U", "self-cleavage": 0.212}, {"variant": "C6G C32G", "self-cleavage": 0.0963}, {"variant": "C6G A23C", "self-cleavage": 0.302}, {"variant": "C6A U26G", "self-cleavage": 0.265}, {"variant": "C6A U26A", "self-cleavage": 0.256}, {"variant": "C6G C7U", "self-cleavage": 0.176}, {"variant": "C6G C9G", "self-cleavage": 0.445}, {"variant": "C6G C9A", "self-cleavage": 0.651}, {"variant": "C6G G48C", "self-cleavage": 0.35}, {"variant": "C6G G48U", "self-cleavage": 0.391}, {"variant": "C6G A8U", "self-cleavage": 0.149}, {"variant": "C6G A8C", "self-cleavage": 0.873}, {"variant": "C6G A59G", "self-cleavage": 0.255}, {"variant": "C6G A59C", "self-cleavage": 0.21}, {"variant": "C6G C33A", "self-cleavage": 0.117}, {"variant": "C6G C33G", "self-cleavage": 0.0662}, {"variant": "C6G C33U", "self-cleavage": 0.262}, {"variant": "C6U C29G", "self-cleavage": 0.259}, {"variant": "C6U G68U", "self-cleavage": 1.02}, {"variant": "C6U G68C", "self-cleavage": 0.999}, {"variant": "C6U G68A", "self-cleavage": 1.03}, {"variant": "C6G G11C", "self-cleavage": 0.17}, {"variant": "C6G C39G", "self-cleavage": 0.174}, {"variant": "C6U U43A", "self-cleavage": 0.917}, {"variant": "C6A U43G", "self-cleavage": 0.367}, {"variant": "C6G U62A", "self-cleavage": 0.129}, {"variant": "C6G U62G", "self-cleavage": 0.0551}, {"variant": "C6U G50A", "self-cleavage": 0.982}, {"variant": "C6U C7G", "self-cleavage": 0.198}, {"variant": "C6U C7A", "self-cleavage": 0.254}, {"variant": "C6A U69A", "self-cleavage": 0.884}, {"variant": "C6A U69G", "self-cleavage": 0.838}, {"variant": "C6A U69C", "self-cleavage": 1.03}, {"variant": "C7A A59U", "self-cleavage": 0.157}, {"variant": "C7A A59G", "self-cleavage": 0.469}, {"variant": "C7A A52U", "self-cleavage": 0.466}, {"variant": "C7A A52C", "self-cleavage": 0.412}, {"variant": "C6U G31C", "self-cleavage": 0.536}, {"variant": "C6U G31U", "self-cleavage": 0.914}, {"variant": "C6U U46A", "self-cleavage": 0.944}, {"variant": "C6U U46G", "self-cleavage": 0.987}, {"variant": "C6U U46C", "self-cleavage": 1}, {"variant": "C6U U36A", "self-cleavage": 0.221}, {"variant": "C6U U36G", "self-cleavage": 0.127}, {"variant": "C6G A42C", "self-cleavage": 0.257}, {"variant": "C6G A42U", "self-cleavage": 0.154}, {"variant": "C6G U49G", "self-cleavage": 0.31}, {"variant": "C6G U49A", "self-cleavage": 0.467}, {"variant": "C6G U49C", "self-cleavage": 0.417}, {"variant": "C6U G11C", "self-cleavage": 0.828}, {"variant": "C6U G11U", "self-cleavage": 0.876}, {"variant": "C6G U38A", "self-cleavage": 0.248}, {"variant": "C6G U38C", "self-cleavage": 0.227}, {"variant": "C6G A40U", "self-cleavage": 0.0791}, {"variant": "C6G A40G", "self-cleavage": 0.307}, {"variant": "C6G A40C", "self-cleavage": 0.128}, {"variant": "C6G A52G", "self-cleavage": 0.343}, {"variant": "C6G A52C", "self-cleavage": 0.264}, {"variant": "C6G C54U", "self-cleavage": 0.398}, {"variant": "C6G C54G", "self-cleavage": 0.0918}, {"variant": "C6U U26C", "self-cleavage": 0.893}, {"variant": "C6U U26A", "self-cleavage": 0.833}, {"variant": "C6U A52C", "self-cleavage": 0.956}, {"variant": "C6U A52U", "self-cleavage": 0.996}, {"variant": "C7A C24A", "self-cleavage": 0.161}, {"variant": "C7A C24G", "self-cleavage": 0.0158}, {"variant": "C7A C24U", "self-cleavage": 0.192}, {"variant": "C6A G47U", "self-cleavage": 0.661}, {"variant": "C7A A60C", "self-cleavage": 0.152}, {"variant": "C7A A60U", "self-cleavage": 0.225}, {"variant": "C6A U21C", "self-cleavage": 0.287}, {"variant": "C6A U21A", "self-cleavage": 0.554}, {"variant": "C6A U21G", "self-cleavage": 0.179}, {"variant": "C6U C12A", "self-cleavage": 0.676}, {"variant": "C6U C12U", "self-cleavage": 0.987}, {"variant": "C6U C12G", "self-cleavage": 0.726}, {"variant": "C6U U67G", "self-cleavage": 0.995}, {"variant": "C6G G37C", "self-cleavage": 0.0619}, {"variant": "C6G G37A", "self-cleavage": 0.0792}, {"variant": "C6U A40C", "self-cleavage": 0.506}, {"variant": "C6U A40U", "self-cleavage": 0.835}, {"variant": "C6A U53C", "self-cleavage": 0.335}, {"variant": "C6A U53G", "self-cleavage": 0.195}, {"variant": "C6A U53A", "self-cleavage": 0.422}]}]}
